Consider two molecules from US6855515 (MERCK, dated 2005).

Test in all cases: Ki printed in running text; no assay described
Assay [1] deals with T1, caspase-10 (UniProt Q92851 220-521, limits assumed).
T1 sequence (looked up): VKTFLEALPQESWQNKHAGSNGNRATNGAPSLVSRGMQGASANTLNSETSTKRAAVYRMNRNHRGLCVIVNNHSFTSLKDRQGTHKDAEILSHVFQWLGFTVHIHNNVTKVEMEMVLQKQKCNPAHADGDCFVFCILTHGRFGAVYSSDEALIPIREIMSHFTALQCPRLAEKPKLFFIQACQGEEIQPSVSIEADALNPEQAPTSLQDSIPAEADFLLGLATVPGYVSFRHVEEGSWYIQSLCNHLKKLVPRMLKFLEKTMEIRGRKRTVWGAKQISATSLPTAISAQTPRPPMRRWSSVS

The target of assay [2] is T2, caspase-1 (UniProt P29466 120-297; P29466 317-404, limits assumed).
T2 sequence (looked up) 1: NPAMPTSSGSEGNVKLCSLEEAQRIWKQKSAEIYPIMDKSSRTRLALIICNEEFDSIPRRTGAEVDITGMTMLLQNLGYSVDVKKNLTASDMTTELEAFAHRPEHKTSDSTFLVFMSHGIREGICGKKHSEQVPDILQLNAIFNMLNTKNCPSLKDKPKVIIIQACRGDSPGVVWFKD
T2 sequence (looked up) 2: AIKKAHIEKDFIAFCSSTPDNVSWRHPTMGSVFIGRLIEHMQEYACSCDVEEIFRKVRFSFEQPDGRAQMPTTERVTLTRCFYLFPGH

The target in assay [3] is T3, caspase-8 (UniProt Q14790 217-374; Q14790 385-479, limits assumed).
T3 construct: also called purified caspase-8

The target of assay [4] is T4, caspase-7 (UniProt P55210 24-198; P55210 207-303, limits assumed).
T4 sequence (looked up) 1: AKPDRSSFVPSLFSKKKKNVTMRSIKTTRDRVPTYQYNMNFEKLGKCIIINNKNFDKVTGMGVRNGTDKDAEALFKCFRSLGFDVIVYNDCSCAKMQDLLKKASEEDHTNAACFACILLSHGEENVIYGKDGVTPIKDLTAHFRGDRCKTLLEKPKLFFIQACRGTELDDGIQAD
T4 sequence (looked up) 2: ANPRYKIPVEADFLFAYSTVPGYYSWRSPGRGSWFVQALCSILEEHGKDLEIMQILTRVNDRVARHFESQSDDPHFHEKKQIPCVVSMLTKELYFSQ

T3 sequence (Q14790 217-374 limits assumed, form in doubt, chain 1 of 2): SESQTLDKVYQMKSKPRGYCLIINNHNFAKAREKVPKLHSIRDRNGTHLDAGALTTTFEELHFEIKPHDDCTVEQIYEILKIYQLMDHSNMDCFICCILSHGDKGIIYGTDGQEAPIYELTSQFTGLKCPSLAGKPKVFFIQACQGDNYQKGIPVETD
T3 sequence (Q14790 385-479 limits assumed, form in doubt, chain 2 of 2): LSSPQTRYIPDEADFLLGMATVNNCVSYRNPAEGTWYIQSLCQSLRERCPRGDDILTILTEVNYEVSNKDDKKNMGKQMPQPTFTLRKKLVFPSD

In general, Ki refers to a measure of affinity in units of concentration, obtained from inhibition or displacement. The low end stands for a stronger hold on the target, the high end for a looser hold on the target. Regarding Ac-YVAD-aldehyde [Ac-YVAD-CHO, N-(N-Ac-Tyr-Val-Ala)-3-amino-4-oxobutanoic acid], the inhibition constant (Ki) in assay [1] is 408 nM; in assay [2] it was 0.6 nM.

On to Ac-DEVD-aldehyde [Ac-DEVD-CHO, N-(N-Ac-Asp-Glu-Val)-3-amino-4-oxobutanoic acid], for which the Ki in assay [3] was 0.92 nM; in assay [1], 12 nM; in assay [4] it was 1 nM; in assay [2], 17 nM.
